Test results published in US20250090876A1 (published 2025).

Biological target: antigen target
Experiment: BLI

Kd: 11.6 nM
B1: ESS0102 5A (antibody, V domains shown)
VH: EVQLLESGGGLVQPGGSLRLSCAASGFSFSSYEMNWVRQAPGKGPEWISYISSGGGTIYYADSVRGRFTISRDNSNNTLYLQMNSLRPDDTAIYYCARDRGRKWLQLLFDSWGQGTLVTVSS
VL: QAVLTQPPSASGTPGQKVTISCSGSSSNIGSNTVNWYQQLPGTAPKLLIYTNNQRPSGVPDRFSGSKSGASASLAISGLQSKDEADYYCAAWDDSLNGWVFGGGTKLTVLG
